In the series the target is T1, CAMTA3 CG-1 WT (Arabidopsis thaliana, UniProt Q8GSA7 1-153).
T1 sequence: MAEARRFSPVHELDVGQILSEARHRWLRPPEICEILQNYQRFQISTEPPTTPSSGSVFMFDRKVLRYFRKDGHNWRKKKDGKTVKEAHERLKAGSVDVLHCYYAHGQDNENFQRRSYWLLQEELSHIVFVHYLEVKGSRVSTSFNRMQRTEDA
The experiment in a line: EMSA; complex detected from 25 ng protein, good binding at 50 ng or more; 20 fmol probe; reduced by unlabeled PDF1.4 competitor; 1X LightShift EMSA binding buffer, 50 ng/ul poly(dI-dC), 20 fmol probe in 20 ul, +/- 4 pmol unlabeled DNA, room temperature 30 min; 5% native PAGE, 0.5X TBE; pH and salt not given. Conditions: protein: recombinant; tags: His (pET28a); label: 3'-biotin on strand 1; blunt. In general terms: A gel shift assay detects complexes by their altered migration in electrophoresis.

B1: PDF1.4 promoter probe (dsDNA)
DNA 1: CGTGAAAGTCACGCGCCAAGAACAAA
DNA 2: TTTGTTCTTGGCGCGTGACTTTCACG
In the case of B1, the binding result was “binds”.

For the origin of these results see publication PMC10417383, “DNA-Binding Activity of CAMTA3 Is Essential for Its Function: Identification of Critical Amino Acids for Its Transcriptional Activity”.
